According to the supplement of paper PMC7125110:
± gives the standard error. Variants at the floor of the assay were thinned out.

B1: glmS ribozyme (parent)
chain: AUAAAAGCGCCAGAACUACAGAAAUGUAGUUGACGAGGAGGAGGUUUAUCGAAUUUUCGGCGGAUGCCUCCAAA

Variants of: B1
Experiment: self-cleavage kobs at 2500 uM GlcN6P; higher = faster cleavage; RNA array
Conditions: with glucosamine-6-phosphate
In short: (§1)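 Glucosamine-6-phosphate, from 40 μM to 10 mM in HEPES/KCl/Mg(OAc)2 buffer, was flowed over sequenced MiSeq chips carrying barcoded ribozyme variants transcribed in situ by E. coli RNA polymerase. A hybridised Cy3 probe tracked the variants at 37 °C as tiles were imaged over ~14 h. kobs, kcat and KM were obtained by fitting normalised per-tile medians to exponential decays and then applying weighted Michaelis–Menten fits across concentrations.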

| Variant | self-cleavage kobs at 2500 uM GlcN6P [s⁻¹] |
| --- | --- |
| C8U G37U | < 1e-05 |
| C8A G29U G32U | < 1e-05 |
| C10U G32U G41C U55G | < 1e-05 |
| C10U G60C G62U | < 1e-05 |
| A12C A36C C71A | < 1e-05 |
| C8U A15C G63C | < 1e-05 |
| G7U C34U G60U A64G | < 1e-05 |
| C8G A14C C71G | < 1e-05 |
| C8G A48U G62A | < 1e-05 |
| A12G A14U G41A G43A C50U G51A | < 1e-05 |
| C8A U57C C70G C71U | < 1e-05 |
| G9C C11A G35A G37U A39C G59U | < 1e-05 |
| C10U A33G G35U U47A G59C | < 1e-05 |
| C10A C50A C67U | 0.000776 ± 0.00021 |
| C8A C11U A48U U56A | < 1e-05 |
| G7C C10G A48C | < 1e-05 |
| C11U G40A C71U | 0.000785 ± 0.00023 |
| A12C C50U G60U C67U | < 1e-05 |
| C11U C16G G32A A42U C70U | < 1e-05 |
| G7U G35U G44U | < 1e-05 |
| C11G G38U A42U G43A | < 1e-05 |
| C11U A12G U31G | 0.000738 ± 0.00012 |
| C8A G32C C34G A42U C61A | < 1e-05 |
| G7C C10G G51U | < 1e-05 |
| A12C U65G U69C | 0.000703 ± 0.0002 |
| C8U A12C A15U U30A U54G U55G C70U | < 1e-05 |
| G9C A12C A42C | < 1e-05 |

| Variant | self-cleavage kobs at 2500 uM GlcN6P [s⁻¹] |
| --- | --- |
| C11A A33C A36G U46G G51A G62A | < 1e-05 |
| G7C C34A U57C G63C | < 1e-05 |
| C11A A33C A53C A64C | < 1e-05 |
| C11G G41U U57A | < 1e-05 |
| C10U A52U A53U U55C U65G | < 1e-05 |
| G9A G40U G62U A64U | < 1e-05 |
| G7A G43A C70A | < 1e-05 |
| C11A C16U A53U | 5.99e-05 ± 2.5e-05 |
| G7U C8U G35C G62A | < 1e-05 |
| C8U A36C U45G A53G G60C C67A | < 1e-05 |
| C10G C50G U55A | 6.66e-05 ± 2.3e-05 |
| G9U G29U A53G | < 1e-05 |
| G7C A14C G60C | < 1e-05 |
| C10G G44U C50G | < 1e-05 |
| C11G G29C G37U A52C | < 1e-05 |
| C8U C11G C58A | < 1e-05 |
| G9C G38A A52U | < 1e-05 |
| G9A C16G A33C G51U U54A C58U | < 1e-05 |
| C11A U47G C61G | < 1e-05 |
| A12G U31A G38C G40U G41A C58A | < 1e-05 |
| C8A G29C G37C A39U G43A U45G G51A | < 1e-05 |
| G9C A15U A42U | < 1e-05 |
| C10U C16A U45C | < 1e-05 |
| G9A A14G U56G | 5.76e-05 ± 2.3e-05 |
| C11U G63A U65C | < 1e-05 |
| C11A C34A G60U | < 1e-05 |
| C11G G29A C70U | 6.76e-05 ± 3.2e-05 |

| Variant | self-cleavage kobs at 2500 uM GlcN6P [s⁻¹] |
| --- | --- |
| G7U A12C A36C A39U U47C | < 1e-05 |
| C10U G29U G38A | 0.00158 ± 0.0007 |
| C10A G63A C71U | < 1e-05 |
| C8U C34U G63C | < 1e-05 |
| G9A U31G G40C | < 1e-05 |
| C11U G13C G62A C71U | < 1e-05 |
| C10U C67G C68U | 0.000126 ± 4.8e-05 |
| C8G G63U U65C | < 1e-05 |
| G9U U47G C68U | < 1e-05 |
| C11U U31G A53C | 0.000433 ± 0.0001 |
| C10U A14C G66C | < 1e-05 |
| G7U G32C U54A | < 1e-05 |
| C11U A42G U54G G66A | 0.000265 ± 7.1e-05 |
| C8A A39G A48U | < 1e-05 |
| C11A U30G A53U | 0.00017 ± 4.1e-05 |
| C10U G29C A36G G41U U54A | < 1e-05 |
| C11U C34U G40C | < 1e-05 |
| C11U U30C A39G A42G | 0.000103 ± 3.7e-05 |
| G7C A36G U55C | < 1e-05 |
| C10U C16G C34G A39G | < 1e-05 |
| C10U A14U G44U C61U | < 1e-05 |
| A12C A36U U46G | < 1e-05 |
| A12G U46G C71U | 9.1e-05 ± 2.1e-05 |
| C10U A36U G51C A53C | < 1e-05 |
| G9A A15G C34G U55C C71G | < 1e-05 |
| C8U U30A U46G | < 1e-05 |

Variants of: B1
Experiment: self-cleavage kobs at 10000 uM GlcN6P; higher = faster cleavage; RNA array
Conditions: with glucosamine-6-phosphate
In short: as §1

| Variant | self-cleavage kobs at 10000 uM GlcN6P [s⁻¹] |
| --- | --- |
| G7U C34U G60U A64G | < 1e-05 |
| C10A C50A C67U | 4.36e-05 ± 1.7e-05 |
| C11U A12G U31G | 0.00126 ± 0.0003 |
| C11A A33C A53C A64C | < 1e-05 |
| G9C G38A A52U | < 1e-05 |
| C8G G63U U65C | < 1e-05 |
